Source: publication PMC7064771, “Repurposed Drugs That Block the Gonococcus-Complement Receptor 3 Interaction Can Prevent and Cure Gonococcal Infection of Primary Human Cervical Epithelial Cells” (mBio, 2020)

Experiments:
human rI-domain = biological target: T1, human rI-domain (Homo sapiens, UniProt P11215); assay: Surface plasmon resonance, immobilized human rI-domain; assay type: binding; settings: purified pilin 0.125-2 μM; NCDI = no concentration-dependent interaction (no binding of ≤2 μM); read-out: KD, rI-domain, Human
T1 construct: Recombinant human and mouse I-domain proteins were made and purified as previously described; made in house
T1 sequence (P11215 150-328 limits assumed): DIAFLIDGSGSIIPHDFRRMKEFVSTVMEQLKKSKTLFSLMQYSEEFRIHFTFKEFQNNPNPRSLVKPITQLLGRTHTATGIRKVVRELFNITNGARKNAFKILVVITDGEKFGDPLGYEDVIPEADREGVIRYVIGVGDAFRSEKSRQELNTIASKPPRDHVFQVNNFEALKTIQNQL
Method: (§1) SPR analyses were performed using a Biacore S200 system (GE Healthcare Life Sciences, Parramatta, NSW, Australia). Samples were analyzed at 25°C in phosphate-buffered saline (PBS) at a flow rate of 10 μl/min and by using single-cycle kinetics. Human rI-domain, mouse rI-domain, and human rCR3 were immobilized onto separate cells of a Series S CM5 sensor chip using an NHS capture kit (both from GE Healthcare Life Sciences) for purified pilin experiments. For experiments in which pilin-glycan-like structures were examined, human rI-domain and rCR3 were immobilized onto separate cells of a CM5 chip. A blank immobilization was used as a control/reference on all chips. MS11 wild-type and MS11 pglA pilin were serially diluted from 2 μM to 0.125 μM in PBS. Glycans (Dextra Laboratories, Reading, UK) (Table 2), resembling the gonococcal Gal(α1-3)diNAcBac pilin-linked glycan, were serially diluted from 2 μM to 0.0078 μM in PBS. Affinity data points were taken at 15 s after injection to avoid an artefactual signal resulting from bulk transport. SPR sensorgrams were analyzed using Biacore Evaluation software (GE Healthcare Life Sciences).

mouse rI-domain = biological target: T2, mouse rI-domain (Mus musculus, UniProt P05555); assay: Surface plasmon resonance, immobilized mouse rI-domain; settings: purified pilin 0.125-2 μM; NCDI = no concentration-dependent interaction (no binding of ≤2 μM)
T2 construct: Recombinant human and mouse I-domain proteins were made and purified as previously described; made in house
T2 sequence (P05555 164-338): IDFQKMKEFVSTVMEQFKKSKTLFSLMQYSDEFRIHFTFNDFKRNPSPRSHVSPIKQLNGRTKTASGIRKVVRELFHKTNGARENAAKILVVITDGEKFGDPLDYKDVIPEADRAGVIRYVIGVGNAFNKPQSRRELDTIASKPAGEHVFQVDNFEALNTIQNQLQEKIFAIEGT
Method: as §1

B1: MS11 wild type: N. gonorrhoeae MS11 pilin modified with the Gal(α1-3)diNAcBac disaccharide glycan (protein, UniProt P02974 8-165, looked up)
Type IV major pilin protein …: FTLIELMIVIAIVGILAAVALPAYQDYTARAQVSEAILLAEGQKSAVTEYYLNHGKWPENNTSAGVASPPSDIKGKYVKEVEVKNGVVTATMLSSGVNNEIKGKKLSLWARRENGSVKWFCGQPVTRTDDDTVADAKDGKEIDTKHLPSTCRDNFDAK
modifications: Gal(α1-3)diNAcBac disaccharide glycan
notes: N. gonorrhoeae MS11 pilin modified with the Gal(α1-3)diNAcBac disaccharide glycan
Kd (human rI-domain): 0.349 ± 0.045 µM | KD, rI-domain, Mouse (mouse rI-domain): NCDI
